From paper PMC5897525 (2018)

Legend:
[1] = molecular target: recombinant Fel d 1 produced with a myc-myc-hexahistidine tag (rFel d 1.mmh) (cat, UniProt P30440-1 18-109; P30438 23-92); experiment: SPR; 25°C
[2] = molecular target: rFel d 1.mFc; experiment: SPR; 25°C; dimeric

Sequence of recombinant Fel d 1 produced with a myc-myc-hexahistidine tag (rFel d 1.mmh) (P30440 other isoform, or with tags, fused parts or gaps): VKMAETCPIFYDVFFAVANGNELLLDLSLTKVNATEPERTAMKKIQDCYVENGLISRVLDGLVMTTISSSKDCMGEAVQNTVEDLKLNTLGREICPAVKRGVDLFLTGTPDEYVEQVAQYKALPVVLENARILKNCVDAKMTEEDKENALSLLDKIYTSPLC

B1: REGN1909 (antibody, V domains shown)
VH: EVQLVESGGGLVQPGGSLRLSCAASGFTFSSYAMSWVRQAPGKGLEWVSAISGRGYNADYADSVKGRFTISRDNSKNTLYLQMNSLRAEDTAVYYCAKLEYFDYWGQGTLVTVSS
VL: DIQMTQSPSTLSASVGDRVTITCRASQSISSWLAWYQQKPGKAPKLLIYKASSLESGVPSRFSGSGSGTDFTLTISSLRPEDFATYYCQQYNSYPLTFGGGTKVEIK
In the case of B1, the Kd [1] is reported as 0.912 nM and the Kd [2] is reported as 0.0978 nM.
